From paper PMC8809517, “Cofactor-independent RNA editing by a synthetic S-type PPR protein” come the findings set out here.

What all share (test): high-throughput RNA pulldown from lysate on Ni-NTA beads; HRP: 50 mM Tris pH 8, 150 mM NaCl, 1 mM beta-mercaptoethanol, 50 ug/ml BSA, 3 ug/ml yeast RNA, 0.5% heparin; ITC and FP: Tris pH 8, 200 mM KCl, 5% glycerol; MST: 50 mM Tris pH 8, 200 mM NaCl, 1 mM DTT, BSA, heparin, 0.05% Tween 20
Conditions in all cases: tags: N-terminal His-eGFP

The target in data set [1] is T1, GFP-9S library array, motif 4 ND N98P;D124W (synthetic construct, N98P;D124W).
T1 chain: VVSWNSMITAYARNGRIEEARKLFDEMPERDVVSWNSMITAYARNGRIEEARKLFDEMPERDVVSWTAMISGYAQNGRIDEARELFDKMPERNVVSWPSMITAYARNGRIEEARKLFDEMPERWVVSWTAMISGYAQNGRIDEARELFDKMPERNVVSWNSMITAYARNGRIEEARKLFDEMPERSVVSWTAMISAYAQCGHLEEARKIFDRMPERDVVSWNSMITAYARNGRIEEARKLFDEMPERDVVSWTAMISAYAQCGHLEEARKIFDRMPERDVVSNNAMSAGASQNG

Data set [2] concerns the target T2, GFP-9S library array, motif 4 ND N98M;D124H (synthetic construct, N98M;D124H).
T2 chain: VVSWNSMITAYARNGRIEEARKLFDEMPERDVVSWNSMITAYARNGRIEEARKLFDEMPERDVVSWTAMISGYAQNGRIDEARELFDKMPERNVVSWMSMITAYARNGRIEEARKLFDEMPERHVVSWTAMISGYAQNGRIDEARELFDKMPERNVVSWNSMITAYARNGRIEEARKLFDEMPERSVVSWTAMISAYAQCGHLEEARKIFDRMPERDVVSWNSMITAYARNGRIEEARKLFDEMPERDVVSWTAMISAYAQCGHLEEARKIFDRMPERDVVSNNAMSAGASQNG

Data set [3] deals with T3, GFP-9S library array, motif 4 ND N98S;D124R (synthetic construct, N98S;D124R).
T3 chain: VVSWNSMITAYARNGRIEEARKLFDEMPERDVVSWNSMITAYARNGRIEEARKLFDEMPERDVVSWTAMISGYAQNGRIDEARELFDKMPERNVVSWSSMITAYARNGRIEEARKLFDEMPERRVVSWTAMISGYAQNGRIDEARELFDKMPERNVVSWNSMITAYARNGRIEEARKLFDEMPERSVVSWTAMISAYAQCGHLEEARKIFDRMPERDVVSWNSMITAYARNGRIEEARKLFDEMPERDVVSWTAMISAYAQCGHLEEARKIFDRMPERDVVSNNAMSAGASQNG

Data set [4] deals with T4, GFP-9S library array, motif 4 ND D124P (synthetic construct, D124P).
T4 chain: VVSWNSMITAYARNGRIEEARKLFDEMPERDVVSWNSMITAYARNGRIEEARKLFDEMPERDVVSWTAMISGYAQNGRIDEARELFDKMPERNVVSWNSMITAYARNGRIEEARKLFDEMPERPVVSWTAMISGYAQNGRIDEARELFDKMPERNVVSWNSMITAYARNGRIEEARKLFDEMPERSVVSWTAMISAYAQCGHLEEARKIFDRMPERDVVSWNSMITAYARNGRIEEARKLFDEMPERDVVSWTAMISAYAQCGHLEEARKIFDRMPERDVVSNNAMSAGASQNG

The target of data set [5] is T5, GFP-9S library array, motif 4 ND N98L (synthetic construct, N98L).
T5 chain: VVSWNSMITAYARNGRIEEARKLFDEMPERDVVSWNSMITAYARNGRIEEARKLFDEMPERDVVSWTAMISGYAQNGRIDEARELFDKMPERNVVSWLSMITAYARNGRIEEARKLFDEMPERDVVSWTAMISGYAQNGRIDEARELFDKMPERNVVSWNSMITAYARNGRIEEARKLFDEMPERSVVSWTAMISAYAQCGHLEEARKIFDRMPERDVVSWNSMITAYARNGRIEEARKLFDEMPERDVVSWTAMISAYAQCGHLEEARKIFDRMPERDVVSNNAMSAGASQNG

B1: IR-rpoA-A (ssRNA)
RNA: AUUAAACGUGA
In the case of B1, the Kd (commonly the concentration at which binding is half-saturated) amounted to 0.0446 µM in data set [1] (label: 5' IRDye 800CW); 0.574 µM in data set [2] (label: 5' IRDye 800CW); 0.0635 µM in data set [3] (label: 5' IRDye 800CW); 0.29 µM in data set [4] (label: 5' IRDye 800CW); 0.452 µM in data set [5] (label: 5' IRDye 800CW).

B2: Cy5-rpoA-G (ssRNA)
RNA: AUUAGACGUGA
Turning to B2, the Kd came to 0.0777 µM in data set [1] (label: 5' Cy5); 0.257 µM in data set [2] (label: 5' Cy5); 0.0978 µM in data set [3] (label: 5' Cy5); 0.158 µM in data set [4] (label: 5' Cy5); 0.183 µM in data set [5] (label: 5' Cy5).

B3: IR-rpoA-U (ssRNA)
RNA: AUUAUACGUGA
As to B3, the Kd in data set [1] (label: 5' IRDye 800CW) is 0.0819 µM; in data set [2] (label: 5' IRDye 800CW), 0.412 µM; in data set [3] (label: 5' IRDye 800CW) it was 0.109 µM; in data set [4] (label: 5' IRDye 800CW), 0.154 µM; in data set [5] (label: 5' IRDye 800CW) it was 0.0663 µM.

B4: Cy5-rpoA (ssRNA)
RNA: AUUACACGUGA
As for B4, the Kd stood at 0.0693 µM in data set [1] (label: 5' Cy5); 0.242 µM in data set [2] (label: 5' Cy5); 0.0877 µM in data set [3] (label: 5' Cy5); 0.123 µM in data set [4] (label: 5' Cy5); 0.214 µM in data set [5] (label: 5' Cy5).
